Key:
[1] = test system: HCC159 lung adenocarcinoma cells; test: Interferon Gamma secretion, HCC159 co-culture; assay type: cell-based; conditions: Osimeritinib 0, 1, 5 nM; 18 hours
Method: HCC159 lung adenocarcinoma cells were co-cultured with CER123- or CER126-expressing CD4+ T cells with increasing concentrations of Osimeritnib (0, 1 nM, 5 nM). After 18 hours of co-culture, bulk supernatants were evaluated using a LDH-based cytotoxicity assay. T cells assays were performed using purified, EGFR^+ (transduction marker), CER modified T cells 7 days after activation using CD3 & CD28 microbeads at effector:target cell ratios of 2:1 or 5:1. Control “Mock” T cells were transduced with vector alone. […] Bulk supernatants were also analyzed after 18 hours of co-culture for Interferon Gamma (IFNγ) secretion (FIG. 50). Control “Mock” T cells were transduced with vector alone.

human primary B cells = test: Proliferation of CER+ B cells co-cultured with paclitaxel treated Jurkat cells (CELLTRACE Violet dilution); assay type: cell-based; conditions: 5 days co-culture with paclitaxel (30 μM) treated Jurkat cells, no exogenous cytokines
Method: The proliferation capacity of CER19+ and CER21+ human primary B cells was evaluated by co-culture with paclitaxel (30 μM) treated Jurkat lymphoma cells. CER-transduced B cells were labeled with CELLTRACE Violet and then co-cultured with paclitaxel treated Jurkat cells a target cell to effector cell ratio of 5:1 at 37° C. in the absence of exogenous cytokines for 5 days. Proliferation of CER19+ or CER21+B cells was assessed by flow cytometry by measuring dilution of CELLTRACE Violet (FIG. 23). Both CER19+ and CER21+ B cells increased approximately 10-fold after 5 days of co-culture in the absence of exogenous cytokines.

[2] = test system: dexamethasone pre-treated thymocytes; test: Phagocytosis of thymocytes by CER Ba/F3 cells in presence or absence of Racl inhibitor; assay type: cell-based; conditions: Ba/F3 cells, 6 hour co-culture
[3] = test system: pHrodo-red labeled, dexamethasone treated thymocytes; test: Luminal degradation of engulfed thymocytes in CER-transduced Ba/F3 cells (time-lapse imaging); assay type: cell-based; conditions: FACS purified after overnight co-culture
Method: Luminal degradation in CER-transduced cells was also evaluated following engulfment. Ba/F3 cells transduced with CER21 or CER116 were co-cultured with pHrodo-red labeled, dexamethasone treated thymocytes overnight and subsequently purified by FACS. Target cell destruction was visualized by time-lapse imaging and quantified over time (FIG. 85F). […] CER116-harboring Ba/F3 cells (top) catabolize target cells, allowing cells to return to homeostasis and resume immune responsiveness. The addition of a TRAF6 signaling domain to the CER construct promotes rapid destruction of engulfed material.

SCC152 cells = test: LDH cytotoxicity assay, CD4 T cell/CER104 + CD8 T cell/HPV16 E7 TCR co-culture; assay type: cell-based, human; conditions: CD4/CER + CD8/HPV16 E7 TCR 1:1, 4 hours
From the text: LDH is a cytosolic enzyme that is released by a cell into cell culture media when the plasma membrane is damaged. Thus, LDH's presence in culture medium is a marker for cell death. LDH assays are capable of detecting low level damage to cell membrane which cannot be detected using other methods. LDH may be detected using colorimetric or fluorometric methods.

H1975 NSCLC cells = test: Phagocytosis of Osimeritinib-treated H1975 cells by CER122 T cells; assay type: cell-based; conditions: 500 nM osimeritinib, 12 hours, CD4+ T cells
Method: H1975 NSCLC cells were treated with 500 nM Osimeritinib and then labeled with pH-rodo red, a pH sensing dye, to indicate localization to low-pH retaining endosomes. CD4+ T cells were transduced with a lentiviral vector comprising a CER122 nucleic acid and tEGFR nucleic acid (transduction marker). CER122 has a polypeptide sequence as set forth in SEQ ID NO:149 and comprises a Tim4 binding domain, Tim4 transmembrane domain, and an engulfment signaling domain comprising a primary engulfment signaling domain comprising a TLR2 signaling domain and a secondary engulfment signaling domain comprising a DAP12 signaling domain. CER122-transduced T cells labeled with CELLTRACE Violet were co-cultured with Osimeritinib-treated H1975 NSCLC cells. Fluorescent microscopy images (40X) were obtained 12 hours after co-culture of H1975 cells and CER-expressing T cells (FIG. 47, top left panel). […] Phagocytic events can be visualized as pHrodo red targets within CELLTRACE Violet labeled T cells. An enlargement of phagocytosis of pHrodo red labeled H1975 cells by CELLTRACE Violet labeled CER122-modified T cells is shown in the bottom panel of FIG. 47, with white arrows indicating phagocytic events.

[4] = test system: A549 ALK+Luciferase+ cells; test: Adoptive transfer of CER T cells with ALK inhibitor in A549 ALK+ xenograft; assay type: in vivo, immunodeficient (NSG) mice; conditions: Alectinib 15 mg/kg intraperitoneally + 10e6 CER-transduced human T cells, NSG mice
Method: The combination of CER therapy and ALK inhibitor therapy was also evaluated in vivo. […] A549 ALK+Luciferase^+ cells were engrafted into immunodeficient (NSG) mice 21 days prior to initiation of study and evaluated for engraftment by bioluminescent emission and tumor volume seven days later. […] Animals received 10 μg of systemic IL-2 every 24 hours×3 days following cell infusion and then monitored for tumor progression and cell expansion and persistence thereafter.
Peripheral blood sample was stained with anti-human CD45-APC-conjugated antibody 8 days following cell infusion. Each FACS plot indicates a single animal. A bar graph depicting frequency of human CD45+ cells/μL of peripheral blood at days 4, 8, 16, and 25 post-adoptive transfer of CER122+ T cells (FIG. 77B). Peripheral blood was obtained by retro-orbital bleeding and examined for evidence of T cell engraftment by FACS. The frequency of human-CD45 cells/μL of peripheral blood was determined by FACs using TRUCOUNT (BD Biosciences) beads.

[5] = test system: H1975 EGFR+/Luciferase+ cells; test: Adoptive transfer of CER T cells with EGFR inhibitor in H1975 xenograft; assay type: in vivo, immunodeficient (NSG) mice; conditions: Osimeritinib 1 mg/kg intraperitoneally + 10e6 CER-transduced human T cells, NSG mice
Method: The combination of CER therapy and EGFR inhibitor therapy was also evaluated in vivo. […] H1975 EGFR+/Luciferase^+ cells were engrafted into immunodeficient (NSG) mice 14 days prior to initiation of study and evaluated for engraftment by bioluminescent emission and tumor volume seven days later. The day prior to CER adoptive transfer (day-1), animals with established tumors were randomized into groups and treated with Osimeritinib 1 mg/kg (intraperitoneally) and then infused by tail vein with 10e6 CER-transduced human T cells. Animals received 10 μg of systemic IL-2 every 24 hours×3 days following cell infusion and then monitored for tumor progression and cell expansion and persistence thereafter. Tumor volume measurements were obtained post-adoptive transfer in untreated, Osimeritinib treated (1 mg/kg)+mock-transduced T cells (vector only), and Osimeritinib (1 mg/kg)+CER122-transduced T cells (n=5/group) (FIG. 79).

B1: CER123: Tim4 binding and transmembrane domains, TLR2 primary and TRAF6 secondary signaling domains; SEQ ID NO:150 (protein)
chain: MSKGLLLLWLVTELWWLYLTPAASEDTIIGFLGQPVTLPCHYLSWSQSRNSMCWGKGSCPNSKCNAELLRTDGTRIISRKSTKYTLLGKVQFGEVSLTISNTNRGDSGVYCCRIEVPGWFNDVKKNVRLELRRATTTKKPTTTTRPTTTPYVTTTTPELLPTTVMTTSVLPTTTPPQTLATTAFSTAVTTCPSTTPGSFSQETTKGSAFTTESETLPASNHSQRSMMTISTDIAVLRPTGSNPGILPSTSQLTTQKTTLTTSESLQKTTKSHQINSRQTILIIACCVGFVLMVLLFLAFLHRFHGLWYMKMMWAWLQAKRKPRKAPSRNICYDAFVSYSERDAYWVENLMVQELENFNPPFKLCLHKRDFIPGKWIIDNIIDSIEKSHKTVFVLSENFVKSEWCKYELDFSHFRLFDENNDAAILILLEPIEKKAIPQRFCKLRKIMNTKTYLEWPMDEAQREGFWVNLRAAIKSMSLLNCENSCGSSQSESDCCVAMASSCSAVTKDDSVGGTASTGNLSSSFMEEIQGYDVEFDPPLESKYECPICLMALREAVQTPCGHRFCKACIIKSIRDAGHKCPVDNEILLENQLFPDNFAKREILSLMVKCPNEGCLHKMELRHLEDHQAHCEFALMDCPQCQRPFQKFHINIHILKDCPRRQVSCDNCAASMAFEDKEIHDQNCPLANVICEYCNTILIREQMPNHYDLDCPTAPIPCTFSTFGCHEKMQRNHLARHLQENTQSHMRMLA
modifications: CER123 protein
**Q.** For B1, which “Interferon Gamma (IFNγ) secretion” value [1] is on record?
**A.** Its value is “inducible cytokine secretion”.

B2: CER21: Tim4 binding and transmembrane domains, TLR8 signaling domain; SEQ ID NO:88 (protein)
chain: MSKGLLLLWLVTELWWLYLTPAASEDTIIGFLGQPVTLPCHYLSWSQSRNSMCWGKGSCPNSKCNAELLRTDGTRIISRKSTKYTLLGKVQFGEVSLTISNTNRGDSGVYCCRIEVPGWFNDVKKNVRLELRRATTTKKPTTTTRPTTTPYVTTTTPELLPTTVMTTSVLPTTTPPQTLATTAFSTAVTTCPSTTPGSFSQETTKGSAFTTESETLPASNHSQRSMMTISTDIAVLRPTGSNPGILPSTSQLTTQKTTLTTSESLQKTTKSHQINSRQTILIIACCVGFVLMVLLFLAFLHHLFYWDVWFIYNVCLAKVKGYRSLSTSQTFYDAYISYDTKDASVTDWVINELRYHLEESRDKNVLLCLEERDWDPGLAIIDNLMQSINQSKKTVFVLTKKYAKSWNFKTAFYLALQRLMDENMDVIIFILLEPVLQHSQYLRLRQRICKSSILQWPDNPKAEGLFWQTLRNVVLTENDSRYNNMYVDSIKQY
modifications: CER21 chimeric engulfment receptor
**Q.** Which results are given for B2?
**A.** increase of CER+ B cells (human primary B cells): approximately 10 fold; pHrodo+ signal (phagocytosis of thymocytes), FACS [2]: considerable pHrodo+ signal indicating phagocytosis of target thymocytes; luminal content degradation over time [3]: broken down over-time

B3: CER104: Tim4 binding and transmembrane domains, TLR8 primary and DAP12 secondary signaling domains; SEQ ID NO:133 (protein)
chain: MSKGLLLLWLVTELWWLYLTPAASEDTIIGFLGQPVTLPCHYLSWSQSRNSMCWGKGSCPNSKCNAELLRTDGTRIISRKSTKYTLLGKVQFGEVSLTISNTNRGDSGVYCCRIEVPGWFNDVKKNVRLELRRATTTKKPTTTTRPTTTPYVTTTTPELLPTTVMTTSVLPTTTPPQTLATTAFSTAVTTCPSTTPGSFSQETTKGSAFTTESETLPASNHSQRSMMTISTDIAVLRPTGSNPGILPSTSQLTTQKTTLTTSESLQKTTKSHQINSRQTILIIACCVGFVLMVLLFLAFLHHLFYWDVWFIYNVCLAKVKGYRSLSTSQTFYDAYISYDTKDASVTDWVINELRYHLEESRDKNVLLCLEERDWDPGLAIIDNLMQSINQSKKTVFVLTKKYAKSWNFKTAFYLALQRLMDENMDVIIFILLEPVLQHSQYLRLRQRICKSSILQWPDNPKAEGLFWQTLRNVVLTENDSRYNNMYVDSIKQYYFLGRLVPRGRGAAEAATRKQRITETESPYQELQGQRSDVYSDLNTQRPYYK
modifications: CER104 protein
**Q.** B3 was tested. Which “cytolytic activity (LDH cytotoxicity assay)” value (SCC152 cells) did it give?
**A.** The value was “enhanced cytolytic activity”.

B4: CER122: Tim4 binding and transmembrane domains, TLR2 primary and DAP12 secondary signaling domains; SEQ ID NO:149 (protein)
chain: MSKGLLLLWLVTELWWLYLTPAASEDTIIGFLGQPVTLPCHYLSWSQSRNSMCWGKGSCPNSKCNAELLRTDGTRIISRKSTKYTLLGKVQFGEVSLTISNTNRGDSGVYCCRIEVPGWFNDVKKNVRLELRRATTTKKPTTTTRPTTTPYVTTTTPELLPTTVMTTSVLPTTTPPQTLATTAFSTAVTTCPSTTPGSFSQETTKGSAFTTESETLPASNHSQRSMMTISTDIAVLRPTGSNPGILPSTSQLTTQKTTLTTSESLQKTTKSHQINSRQTILIIACCVGFVLMVLLFLAFLHRFHGLWYMKMMWAWLQAKRKPRKAPSRNICYDAFVSYSERDAYWVENLMVQELENFNPPFKLCLHKRDFIPGKWIIDNIIDSIEKSHKTVFVLSENFVKSEWCKYELDFSHFRLFDENNDAAILILLEPIEKKAIPQRFCKLRKIMNTKTYLEWPMDEAQREGFWVNLRAAIKSYFLGRLVPRGRGAAEAATRKQRITETESPYQELQGQRSDVYSDLNTQRPYYK
modifications: CER122 protein
**Q.** What does the source list for B4?
**A.** phagocytosis of H1975 cells (H1975 NSCLC cells): phagocytic elimination of EGFR-mutated NSCLC cells; anti-tumor response (tumor volume, bioluminescence) [4]: enhanced anti-tumor response to ALK+NSCLC in vivo; anti-tumor response (tumor volume) [5]: enhanced anti-tumor responses in EGFR+NSCLC model in vivo
